Results as given in patent US20240000833A1, “METHODS FOR EXPANDING A POPULATION OF ALVEOLAR MACROPHAGES IN A LONG TERM CULTURE” (Institut National de la Santé et de la Recherche Médicale, priority 2015, published 2024).

Columns and labels:
Type in all cases: cell-based, mouse
[1] = tested on: alveolar macrophages (AM); assay: Long-term liquid culture of alveolar macrophages in the presence of GM-CSF
Description: For culture of alveolar macrophages, alveolar lavages were pooled from ten 1 mL 37° C. BAL washes (PBS, 2 mM EDTA, 2% FBS (GE Healthcare) per mouse and stored on ice. RBC lysis was then performed at room temperature (RT) for 3 minutes (RBC Lysis Buffer, Invitrogen). Cells were plated at a density of at least 1.1 million cells per 10 cm bacterial petri dish (Greiner Bio-One) or NUNC non treated 6 well plates (>0.45-5*10^6 per well) in complete medium (RPMI, 10% FCS, 1% Pen/Strep, 1% Pyruvate, 1% Glutamate) supplemented with 1-2% GM-CSF supernatant from J558L cells transfected with murine GM-CSF cDNA. Medium was partially changed every two-three days. Cells were replated only at confluency and only at least one day after medium change. To avoid cell death during detachment, cells were detached with Accutase (StemCells Technologies) and 2 mM EGTA for 15 minutes at 37° C. without agitation or pipetting and careful monitored under the microscope for the detachment process. Only after a large number of cells started to round up and float, cells were carefully detached with a p1000 pipettte.
Cell Culture. […]

[2] = tested on: peritoneal macrophages (PM); assay: In vitro BrdU incorporation by peritoneal macrophages after stimulation with GM-CSF; details: cultured PM, 3 days after stimulation, 18 h BrdU pulse
Description: Peritoneal macrophages were collected by peritoneal washout using 10 mL PBS containing 2 mM EDTA (Sigma). Red cell lysis was performed (RBC Lysis Buffer, Invitrogen) and cells were filtered through a 70 um mesh before further processing. Medium changes occurred every 3-4 days.
(§1) Cell cycle analysis. In vitro proliferation of macrophages was assessed using the Cell Proliferation ELISA (BrdU, colorimetric; Roche) according to manufacturer's instructions. In brief, 10-20 thousand freshly isolated macrophages were plated per 96 well in a tissue culture dish in complete medium (DMEM, 10% FCS, 1% Pen/Strep, 1% Pyruvate, 1% Glutamate). After macrophages had attached to the plastic, plating medium was replaced with complete medium containing the respective cytokine at indicated concentration. On day 2 after stimulation, BrdU was added to the culture and BrdU incorporation was assessed on day 3.

[3] = tested on: alveolar macrophages (AM); assay: In vitro BrdU incorporation by alveolar macrophages after stimulation with GM-CSF; details: cultured AM, 3 days after stimulation, 18 h BrdU pulse
Description: as §1

B1: GM-CSF: cytokine growth factor for leukocytes; used as supernatant from J558L cells transfected with murine GM-CSF cDNA (protein, UniProt P01587 18-141, looked up)
Granulocyte-macrophage …: APTRSPITVTRPWKHVEAIKEALNLLDDMPVTLNEEVEVVSNEFSFKKLTCVQTRLKIFEQGLRGNFTKLKGALNMTASYYQTYCPPTPETDCETQVTTYADFIDSLKTFLTDIPFECKKPGQK
[1]
  duration of expansion of AM in long-term liquid culture: several months
[2]
  BrdU incorporation in response to GM-CSF: not PM incorprorated BrdU
[3]
  BrdU incorporation in response to GM-CSF: incorprorated BrdU
